We go through two molecules from publication PMC2615627.

Data set [1] addresses T1, hRPA (replication protein A heterotrimer RPA1+RPA2+RPA3) (human (Homo sapiens), UniProt P27694;P15927;P35244 1-616;1-270;1-121). Briefly: EMSA. For orientation: Mobility shift assays separate free from complexed probe on a gel.
In data set [2] the target is T1, hRPA (replication protein A …). Briefly: EMSA. The source holds these as a separate data set.

T1 sequence (P27694 whole entry, chain 1 of 3): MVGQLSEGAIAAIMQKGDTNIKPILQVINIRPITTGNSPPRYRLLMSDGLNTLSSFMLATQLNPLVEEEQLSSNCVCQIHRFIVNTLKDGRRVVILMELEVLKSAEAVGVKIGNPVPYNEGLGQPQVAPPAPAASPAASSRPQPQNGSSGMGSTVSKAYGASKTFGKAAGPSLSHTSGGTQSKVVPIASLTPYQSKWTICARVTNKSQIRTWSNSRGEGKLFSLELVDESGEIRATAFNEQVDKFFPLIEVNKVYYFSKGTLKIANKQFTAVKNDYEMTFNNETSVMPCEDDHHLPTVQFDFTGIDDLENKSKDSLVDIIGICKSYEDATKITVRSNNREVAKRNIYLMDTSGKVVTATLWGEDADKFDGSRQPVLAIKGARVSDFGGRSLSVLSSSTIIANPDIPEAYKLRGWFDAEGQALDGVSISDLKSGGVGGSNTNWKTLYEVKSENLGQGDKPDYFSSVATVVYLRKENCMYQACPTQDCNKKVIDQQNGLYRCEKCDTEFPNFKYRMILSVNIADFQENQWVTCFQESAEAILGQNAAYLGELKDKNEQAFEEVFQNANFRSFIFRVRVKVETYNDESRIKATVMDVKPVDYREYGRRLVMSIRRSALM
T1 sequence (P15927 whole entry, chain 2 of 3): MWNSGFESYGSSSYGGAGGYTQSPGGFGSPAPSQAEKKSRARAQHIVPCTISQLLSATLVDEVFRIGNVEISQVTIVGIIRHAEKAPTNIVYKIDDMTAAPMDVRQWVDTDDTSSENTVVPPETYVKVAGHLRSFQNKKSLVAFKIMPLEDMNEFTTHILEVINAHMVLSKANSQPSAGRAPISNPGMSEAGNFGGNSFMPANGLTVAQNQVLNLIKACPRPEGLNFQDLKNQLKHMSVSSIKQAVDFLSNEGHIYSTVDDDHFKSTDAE
T1 sequence (P35244 whole entry, chain 3 of 3): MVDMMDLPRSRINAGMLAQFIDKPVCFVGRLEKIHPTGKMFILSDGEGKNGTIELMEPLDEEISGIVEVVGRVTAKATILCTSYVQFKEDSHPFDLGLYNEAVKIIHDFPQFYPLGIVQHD

GATCTCGGCGACGCACACGCGTCCTAACTCG (ssDNA) [Oligo 31]: the binding result in data set [1] is “binds”.
Regarding TTTTTTTTTTTTTTTTTTTTTTTTTTTTTTT (ssDNA) [poly(dT)31], the binding signal in data set [2] is ~10 fold higher affinity than Oligo 31.
